Test results published in the supplement of paper PMC9170038.

System: MS2 coat protein
Assay: apparent KD of MS2 coat protein; designed switch direction (-1 OFF switch, 1 ON switch): -1; higher = weaker reporter binding
Summary of the method: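 Apparent KD, taken as the median over clusters for each design, was obtained by curve-fitting normalised cluster fluorescence. Designed RNA switches had been transcribed on Illumina chips by stalled E. coli RNA polymerase and titrated with SNAP-549-labelled MS2 coat protein, doubling from 0.7 or 1.5 nM to 3 µM.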

[1] = Eterna round: R95, input ligand: FMN 200 uM
[2] = Eterna round: R95, input ligand: microRNA oligo, concentration not stated
[3] = Eterna round: R95, input ligand: none
[4] = input ligand: microRNA oligo, concentration not stated

Sequence | apparent KD of MS2 coat protein (input ligand: FMN 200 uM) | apparent KD of MS2 coat protein (input ligand: none) | apparent KD of MS2 coat protein [1] | apparent KD of MS2 coat protein [2] | apparent KD of MS2 coat protein [3] | apparent KD of MS2 coat protein [4]
CGGCAAAGGUAGGAUAUGCUAGACGAUAGUCUAGCAGAAGGACCUACAUGAGGAUCACCCAUGUGUCCAAGCCG [Mat - Exclusion 6 - Eli Mod - D19] (Eterna round: R97, puzzle: Exclusion 6) | 27.9 nM | 105 nM | – | – | – | –
GAUCUACAUGAGGAUCACCCAUGUAAGGAUAUUGAGUACUCGAAUGGAGAGCAAGGAUCAAGAAGGUGCAAUAU [Eternabot (L1) Solution 79] (Eterna round: R97, puzzle: Exclusion 1) | 18.8 nM | 23.1 nM | – | – | – | –
AGAAAGGAAGGAUAUACAAGAAAGCUGGGCAACGUCUCAUAACAUGAGGAUCACCCAUGUAGAAGGUCCAGGAA [Tiusredi] (puzzle: Exclusion 2) | – | – | 35.7 nM | 21.2 nM | 19.3 nM | –
GGUUGACAUGAGGAUCACCCAUGUGAGGAUAUGCGAGAGAAAAAAGUGAGGAAGUAAUGCAGAAGGCGCUGUCG [salish99-ex1_r3_017] (puzzle: Exclusion 1) | – | – | 132 nM | 86.4 nM | 210 nM | –
GGCCGUAAUAAGGAUAUCACUAGCUGCGGCUAGUGAGAAGGUAUUACAUGAGGAUCACCCAUGUGGUCAGGCCA [E6/4-B3] (Eterna round: R97, puzzle: Exclusion 6) | 1060 nM | 284 nM | – | – | – | –
AGAUCACAUGAGGAUCACCCAUGUCAGGAUAUCAUCAUUGAAGCCUCGGCUUCAAUGAUGAGAAGGGACAUAAU [E1/2-B2] (Eterna round: R97, puzzle: Exclusion 1) | 546 nM | 465 nM | – | – | – | –
UGGCUGCUCAGGGAGUGUGACAUGAGGAUCACCCAUGUGGUAGUAAGGAACAAGCUUUUUGCACGUACUUAUGGGUC [JR_SV3TOV1_Sub010] (puzzle: Sensor v3, turn-off variant 1) | – | – | 268 nM | 204 nM | 375 nM | –
GAGUGGUGAGGAUAUACAUGAGGAUCACCCAUGUGCUUCAGCUAGGAGACUAGCAUUGGUAGAAGGCAUUACUC [Mod of lroppy 8 - Jieux - Exclusion 3] (Eterna round: R97, puzzle: Exclusion 3) | 102 nM | 33.6 nM | – | – | – | –
UGCCAAGCAGGAUAUGCCCGGAAUAACAUGAGGAUCACCCAUGUGACCGAUUGAUGUUCUGCAGAAGGGCAUGGAA [Mat - Exclusion 5 - Eli Mod - D2] (Eterna round: R97, puzzle: Exclusion 5) | 17.2 nM | 35.7 nM | – | – | – | –
CGCAACACAUGAGGAUCAAACAUGAGGAUCACCCAUGUAUAACAAGCUUUUUGCUCGUCUUAUAAAUAUGUGUUGCG [Electric Eye 2 - Jieux - Sensor, turn-off variant 1] (Eterna round: R97, puzzle: Sensor, turn-off variant 1) | 16.9 nM | 9.13 nM | – | – | – | –
UUGUACCGGUGAGGAUAUUUUUAAUAGAGCUUUAUGAUAUACAUGAGGAUCACCCAUGUUACGUUAAAGAAGGCAUCGGAUUAU [JL JR Sub091 mod 4] (Eterna round: R96, puzzle: Exclusion NG 2) | 18.6 nM | 21.6 nM | – | – | – | 13.9 nM
AUUUAGUGAGGAUAUGUGGCUUCGAUCGUGAGAUCGAGGCUACAGAAGGCACAUGAGGAUCACCCAUGUUCCUA [salish99_ex4_r4_115] (Eterna round: R97, puzzle: Exclusion 4) | 86.3 nM | 21.4 nM | – | – | – | –
UUUAUGUGAGGAUAUAGUACUCCUUCUAUUAUUAUUGAGUACUAGAAGGCACAUGAGGAUCACCCAUGUAGUAC [Ex4 - 3 - 37] (puzzle: Exclusion 4) | – | – | – | 24.3 nM | – | –
UACACCGCAUGAGGAUCAAACAUGAGGAUCACCCAUGUAUAGCAAGCUUUUUGCUCGUCUUAUAAAUAUGUGGUGUA [Electric Eye 8 - Jieux - Sensor, turn-off variant 1] (Eterna round: R97, puzzle: Sensor, turn-off variant 1) | 16.6 nM | 15.5 nM | – | – | – | –
AAUUUACAUGAGGAUCACCCAUGUGAGGAUAUGGUUUCGCUGGCCGUAGCCAGUGGAACCAGAAGGCGCAUGAU [Mat - Exclusion 1 - JL Mod - D12] (Eterna round: R97, puzzle: Exclusion 1) | 283 nM | 65.2 nM | – | – | – | –
CCAUCCAGUGUGAGGAUAUGCUGGUCCUUGGAUCAGCAGAAGGCACAUGAGGAUCACCCAUGUGAAUAGGAUGG [Mat - Exclusion 4 - JL Mod - D85] (puzzle: Brourd's mod of Exclusion 4) | – | – | 153 nM | 18.9 nM | 24.1 nM | –

Sequence | apparent KD of MS2 coat protein (input ligand: FMN 200 uM) | apparent KD of MS2 coat protein (input ligand: none) | apparent KD of MS2 coat protein [1] | apparent KD of MS2 coat protein [2] | apparent KD of MS2 coat protein [3] | apparent KD of MS2 coat protein [4]
AUUAUAUAGACAGGAUAUUGAUUAUUAUUUUAACAUGAGGAUCACCCAUGUAACCUUAUGUGUAGCAAGAAGGGUCAUUUAUUA [Title] (Eterna round: R96, puzzle: Exclusion NG 2) | – | – | – | – | – | 81.8 nM
GAGAAGGUAGGAUAUACGAAUAAAUAGGGUAGUAAUAAUACACAUGAGGAUCACCCAUGUAGAAGGACCAAUAG [Mat - Exclusion 2 - Mod of my Tesla design - D40] (puzzle: Exclusion 2) | – | – | 42.5 nM | 20.8 nM | 24.9 nM | –
AGUAACAGAGGAUAUACUGUUUUAUGUGUUUAUUGUUUUAAACAUGAGGAUCACCCAUGUAGAAGGCUGAAUAA [JMF 85] (puzzle: Exclusion 2) | – | – | – | 25.5 nM | – | –
CAAAAGGGAGGAUAUACUUGAGGAUCACCCAAGUAAUCGGGUCAAAGAUACCAAGCAGGUAGAAGGCCCAAAUA [Teedleveer] (Eterna round: R97, puzzle: Exclusion 3) | 91.5 nM | 84.7 nM | – | – | – | –
GAUACACAUGAGGAUCACCCAUGUGAGGAUAUGAUACUAUGUACUUCGGUACAUAGUAUCAGAAGGCACAUUGA [Ex1-3: 44] (puzzle: Exclusion 1) | – | – | – | 61.2 nM | – | –
CCGCUACAUGAGGAUCACCCAUGUCAGGAUAUCGUACGUUCGUCGAAAGACGAUCGUACGAGAAGGGUGUGCGG [Eli x1 4.37] (Eterna round: R97, puzzle: Exclusion 1) | 169 nM | 155 nM | – | – | – | –
AGUAUAAUGUACGUGCACCACUUACAUGAGGAUCACCCAUGUUAGGAUAUCGAGCCUUUCUGGCUCGAGAAGGGACUCUUCGGG [Eternabot solution 18] (Eterna round: R96, puzzle: Exclusion NG 3) | 33.2 nM | 29.1 nM | – | – | – | 22.9 nM
CCAAGCUUAUUCAUUAACAACAUGAGGAUCACCCAUGUAUAGGCAAUUAUGACUGGGCUCUUUAGUGCUCGUCUUAU [Sensor-V1 #25] (Eterna round: R97, puzzle: Sensor, turn-off variant 1) | 16.2 nM | 14.7 nM | – | – | – | –
UACACUGCAUGAGGAUCAAACAUGAGGAUCACCCAUGUAUAGCAGGCUUUUUGUCCGUCUUAUAAUUAUGUAGUGUA [Electric Eye 17 - Jieux - Sensor, turn-off variant 1] (Eterna round: R97, puzzle: Sensor, turn-off variant 1) | 17.3 nM | 15 nM | – | – | – | –
AACUGAUCUUGAGGAUAUCAAACACAUGAGGAUCACCCAUGUCACGAGACGGUGCUUUCCAGGAGUGAGAAGGUAAGCAGCGAG [Eternabot solution 44] (Eterna round: R96, puzzle: Exclusion NG 2) | 31 nM | 37.1 nM | – | – | – | 28 nM
ACGUAACGAGCUUGGUCCAACAUGAGGAUCACCCAUGUGCUCGUCUUAUAACGUACUGUCACGUUAGUGAUAGUGCG [Sensor v3, turn-off variant 1 (MOD of Eli's v1-13 v.6)] (puzzle: Sensor v3, turn-off variant 1) | – | – | 286 nM | 194 nM | 360 nM | –
UUAAACGCAGGAUAUACAUUUUUUUUAUUAUCCUCAUAAAUACAUGAGGAUCACCCAUGUAGAAGGGCGAAAUU [Mat - Exclusion 2 - Mod of Hog - D87] (puzzle: Exclusion 2) | – | – | – | 144 nM | – | –
AGAUGGCGAGGAUAUACAUGAGGAUCACCCAUGUGAGAUAAAAGAGUGAGGAAGAAAAGUAGAAGGCGCUGUCA [Mat - Exclusion 3 - Mod of Salish D16] (puzzle: Exclusion 3) | – | – | 116 nM | 95.8 nM | 120 nM | –
GAGGAACAUGAGGAUCACCCAUGUGAGGAUAUGCAUAGCGAGGUAGUAGAAGUUGAAUGCAGAAGGUACACGGA [JR_Exclu1_Sub076] (puzzle: Exclusion 1) | – | – | – | 27.5 nM | – | –
UCAUACGAUGAGGAUAUCUCAGUUAAAGUAUUUAGAGAAGGCGUUACAUGAGGAUCACCCAUGUUUGUGGGCAG [Ex-6 Malc#8] (puzzle: Exclusion 6) | – | – | 99.1 nM | 93.9 nM | 136 nM | –
